According to patent US20240018502A1:

Experiments:
[1] = target: plasma purified human complement protein C3 (human) (UniProt P01024); experiment: cell-based or functional assay
[2] = target: human complement protein C3 (human) (UniProt P01024); experiment: cell-based or functional assay
Sequence of human complement protein C3 (human) (P01024 23-667, chain 1 of 2): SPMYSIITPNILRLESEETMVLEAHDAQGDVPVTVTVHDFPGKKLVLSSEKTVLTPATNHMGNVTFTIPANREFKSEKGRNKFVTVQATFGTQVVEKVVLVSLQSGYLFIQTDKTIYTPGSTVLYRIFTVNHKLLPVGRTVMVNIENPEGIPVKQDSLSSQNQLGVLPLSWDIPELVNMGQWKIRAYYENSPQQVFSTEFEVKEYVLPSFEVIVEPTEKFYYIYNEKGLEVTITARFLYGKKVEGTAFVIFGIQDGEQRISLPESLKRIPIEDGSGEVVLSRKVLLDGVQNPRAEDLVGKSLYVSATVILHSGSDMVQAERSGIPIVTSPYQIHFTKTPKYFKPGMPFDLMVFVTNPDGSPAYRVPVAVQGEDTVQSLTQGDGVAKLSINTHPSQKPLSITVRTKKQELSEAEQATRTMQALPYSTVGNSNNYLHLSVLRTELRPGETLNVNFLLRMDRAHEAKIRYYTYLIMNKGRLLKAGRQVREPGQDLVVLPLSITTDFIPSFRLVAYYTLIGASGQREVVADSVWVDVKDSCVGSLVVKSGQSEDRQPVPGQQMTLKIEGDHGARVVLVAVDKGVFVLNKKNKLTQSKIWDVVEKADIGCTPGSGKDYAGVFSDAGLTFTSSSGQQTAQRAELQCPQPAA
Sequence of human complement protein C3 (human) (P01024 672-1663, chain 2 of 2): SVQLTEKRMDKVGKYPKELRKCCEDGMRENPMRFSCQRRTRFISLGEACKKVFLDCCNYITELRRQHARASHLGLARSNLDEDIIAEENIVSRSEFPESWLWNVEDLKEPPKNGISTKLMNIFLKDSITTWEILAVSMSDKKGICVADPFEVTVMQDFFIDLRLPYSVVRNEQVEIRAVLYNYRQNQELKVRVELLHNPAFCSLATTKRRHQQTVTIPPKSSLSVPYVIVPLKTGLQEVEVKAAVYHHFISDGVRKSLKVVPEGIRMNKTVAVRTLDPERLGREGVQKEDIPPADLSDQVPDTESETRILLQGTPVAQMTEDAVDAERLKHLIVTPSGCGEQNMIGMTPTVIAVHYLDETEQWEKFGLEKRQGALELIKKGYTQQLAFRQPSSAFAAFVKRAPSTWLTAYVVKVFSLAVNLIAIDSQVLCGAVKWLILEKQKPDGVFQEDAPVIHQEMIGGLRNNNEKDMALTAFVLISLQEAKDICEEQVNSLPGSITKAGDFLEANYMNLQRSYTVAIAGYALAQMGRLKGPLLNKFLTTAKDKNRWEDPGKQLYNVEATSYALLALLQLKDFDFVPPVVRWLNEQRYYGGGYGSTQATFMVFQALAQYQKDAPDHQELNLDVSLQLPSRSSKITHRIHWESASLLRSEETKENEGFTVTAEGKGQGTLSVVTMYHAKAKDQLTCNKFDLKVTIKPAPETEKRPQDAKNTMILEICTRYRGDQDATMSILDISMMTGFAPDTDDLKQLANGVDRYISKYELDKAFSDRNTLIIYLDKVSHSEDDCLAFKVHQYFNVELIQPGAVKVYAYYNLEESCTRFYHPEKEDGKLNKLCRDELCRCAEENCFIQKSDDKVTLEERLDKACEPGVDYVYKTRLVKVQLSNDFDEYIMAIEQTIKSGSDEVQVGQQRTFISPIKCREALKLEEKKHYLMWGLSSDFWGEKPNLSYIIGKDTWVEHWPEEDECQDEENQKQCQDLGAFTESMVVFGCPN

Sequence of plasma purified human complement protein C3 (human) (P01024 23-667, chain 1 of 2): as the sequence (P01024 23-667, chain 1 of 2) above
Sequence of plasma purified human complement protein C3 (human) (P01024 672-1663, chain 2 of 2): as the sequence (P01024 672-1663, chain 2 of 2) above

| Substance | EC50 of hC3 cleavage [1] [nM] | other results |
| --- | --- | --- |
| MTSP-1 H40R/I41H/F97D/F99L/C122S/Q175L/Q192G/D217Q/K224R (from UniProt Q9Y5Y6 615-855) (enzyme) | 14.9 |  |
| MTSP-1 H40R/I41H/Y60gL/F97D/F99L/C122S/G151N/Q175M/D217I/K224S (from UniProt Q9Y5Y6 615-855) (enzyme) | 7.41 |  |
| MTSP-1 H40R/I41H/F97D/F99L/C122S/G151D/Q192G (from UniProt Q9Y5Y6 615-855) (enzyme) | 1530 |  |
| Q38Y/I41S/D60bT/F60eR/Y60gW/D96M/F97N/T98G/F99L/C122S/Q175L/Q192D (from UniProt Q9Y5Y6 615-855) (enzyme) |  | EC50 (nM), cleavage of purified hC3 in vitro [2]: 3.75 nM |
| MTSP-1 protease domain Q38Y/I41S/D60bT/F60eR/Y60gW/D96M/F97N/T98G/F99L/C122S/Q175L/Q192D (from UniProt Q9Y5Y6 615-855) (enzyme) |  | EC50 hC3 cleavage [1]: 3.75 nM |
